Assay results taken from the nanobody polyreactivity screen of Harvey et al. (2022).

Test: yeast display, Sf9 membrane polyspecificity reagent, FACS + sequencing; frameworks hold sequencing errors
In short: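 After 36–48 hours of galactose induction, yeast (Saccharomyces cerevisiae BJ5465) displaying a synthetic nanobody library were stained at 4 °C for 1 hour with 10% biotinylated, detergent-solubilized Sf9 membrane reagent. Streptavidin microbeads enriched the stained cells before FACS sorting into low and high (top ~1%) gates on anti-HA and streptavidin fluorescence. Each clone's polyreactivity label reflects its gate of origin.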

Row | Sequence | polyreactivity (PSR sort gate)
1 | QVQLVESGGGLVQAGGSLRLSCAASGSTFHRYTMGWYRQAPGKERELVAAISSGGRTYYADSVKGRFTISRDNAKNTVYLQKNSLKPEDTAVYYCNSRYPRQYWGGYDYWGQGTQVTVSS | high polyreactivity
2 | QVQLVESGGGLVQAGGSLRLSCAASGSTFHRYVMGWYRQAPGKERELVAVINSTGGSTYYADSVKGRFTISRDNAKNTVYLQMNSLKPEDNAVYYCARVTRRGPGYTTLYSRYDYWGQGTQVTVSS | low polyreactivity
3 | QVQLVESGGGLVQAGGSLRLSCAASGSTFHSYAMGRYRQAPGKEREFVAAITIRGGSTYYADSVKGRFTISRDNAKNTVYLQMNSLKPEDTAVYYCAALVWGSYARWRYYWGQGTQVTVSS | high polyreactivity
4 | QVQLVESGGGLVQAGGSLRLSCAASGSTFHTYTMGWYRPAPGKERELVAGISRSGGSTYYAESVKGRFTISRDNAKNTVYLQMNSLKPEATAVYYCNALSSKTDTYDYWGQGTQVTVSS | high polyreactivity
5 | QVQLVESGGGLVQAGGSLRLSCAASGSTFHWYVMGWYRQAPAKERELVAAITWSGGSTYYADSVKGRFTISRDNAKNTVYLQMNSLKPEDTAVYYCNAVFWIWNAGYDYWGQGTQVTVSS | low polyreactivity
6 | QVQLVESGGGLVQAGGSLRLSCAASGSTFIFNTMGWYRQAPGKERELVASITGDGRTNYADSVKGRFTISRDNAKNTVYLQMNSLKPEDTAVYYCAADGYDQYPLWAPPGDYWGQGTQVTVSS | low polyreactivity
7 | QVQLVESGGGLVQAGGSLRLSCAASGSTFIFYVMGWNRQAPGKERELVASITGNGTSTYYADSVKGRFTISRDNAKNTVYLQMNSLKPEDTAVYYCNAVFSPSRYDYWGQGTQVTVSS | low polyreactivity
8 | QVQLVESGGGLVQAGGSLRLSCAASGSTFIIYAMGWYRQAPGKERELVAAISWSGGSTYYADSVKGRFTISRDNAKNTVYLQMNSLKPEDTAVYYCNAARYYTPWRTWYDYWGQGTQVTVSS | high polyreactivity
9 | QVQLVESGGGLVQAGGSLRLSCAASGSTFINYAMGWYRQAPGKERELVAAISKGGGSTYYADSVKGRFTISRDNAKNTVYLQMTSLKPEDTAVYYCAATGRAGAGKRKYEYWGQGTQVTVSS | high polyreactivity
10 | QVQLVESGGGLVQAGGSLRLSCAASGSTFIQYAMGWYRQAPGKERELVATIRWIGGSTYYADSVKGRFTISRDNAKNTVYLQMNSLKPEDTAVYYCAAGYEYVENGVDWYEYDYWGQGTQVTVSS | low polyreactivity
11 | QVQLVESGGGLVQAGGSLRLSCAASGSTFIWNAMGWYRQAPGKVRELVAAISSGGSTYYADSVKGRFTISRDNAKNTVYLQMNSLKPEDTAVYYCAAEYVYNVSEQRYAVYSTDDYWGQGSQVTVSS | low polyreactivity
12 | QVQLVESGGGLVQAGGSLRLSCAASGSTFIYNAMGWYRQAPGKERELVAAITWNGGSTYYADSVKGRFTISRDNAKNTVYLQMNSLKPEDTAVYYCAVDKGSQPHYDYWGQGTQVTVSS | low polyreactivity
13 | QVQLVESGGGLVQAGGSLRLSCAASGSTFIYYAMGWYRQAPGKERELVASISRSGGSTYYADSVKGRFTISRDNAKNTVYLQMNSLKPEDTAVYYCAAVGWTYEYWEWYDYWGQGTQVTVSS | high polyreactivity
14 | QVQLVESGGGLVQAGGSLRLSCAASGSTFIYYTMGWYRQAPGKERELVAAIPSSGGSTYYADSVKGRFTISRDNAKNTVYLQMNSLKPEDTAVYYCADDGTYIKFAKLYRRYDYWGQGTQVTVSS | low polyreactivity
15 | QVQLVESGGGLVQAGGSLRLSCAASGSTFKAYAMGWYRQAPGKERELVAAITRRGTSTYYADSVKGRFTISRDNAKNTDYFQMNRLKPEDTAVFYCNAKYVSDRSSAVSFDYWVQGTQVTVSS | low polyreactivity
16 | QVQLVESGGGLVQAGGSLRLSCAASGSTFKAYAMGWYRQAPGKERELVAAITRRGTSTYYADSVKGRFTISRDNAKNTVYLQMNSLNPEDTAVYYCNAKYVSDRSSAVSFDYWGQGTQVTVSS | low polyreactivity
17 | QVQLVESGGGLVQAGGSLRLSCAASGSTFKAYAMGWYRQAPGKEWELVAAISASGGTTYYADSVKGRFTISRDNAKNTVYLQLKSLKPEDTAVYYCNARHPYTGGRRYPYTRYGYWGQGTQVTVSS | high polyreactivity
18 | QVQLVESGGGLVQAGGSLRLSCAASGSTFKLYAMGWYRPAPGKERELVAAISYRGGTTYYADSVKGRFTISRDNAKNSVYLQMNSLKPEDTAVYYCAAGWRPRYLRDASKYDYWGQGTQVTVSS | low polyreactivity
19 | QVQLVESGGGLVQAGGSLRLSCAASGSTFKLYAMGWYRPAPGKERELVAAITSNCGRTYYADSVKGRFTISRDIAKNTVYLQMNSLKPEDTAVYYCAARRYAPAGGYDYWGQGTQVTVSS | high polyreactivity
20 | QVQLVESGGGLVQAGGSLRLSCAASGSTFKNNAMGWYRQAPGKEREFVASISKRGGSTYYADSVKGRFTISRDNAKNTVYLQMNSLKPEDTAVYYCGKTYWSYGWSHGDYGEFDYWGQGSQVTVSS | high polyreactivity
21 | QVQLVESGGGLVQAGGSLRLSCAASGSTFKPNVMGWSRLAPGKERELVAAITSTDDPTYYADSVKGRFSISRDNAKNTVYLQMNSLKPEDTAVDYCAVESLRDDFEYDYWGQGTQVTVSS | low polyreactivity
22 | QVQLVESGGGLVQAGGSLRLSCAASGSTFKRYAMAWYREGPGKEMDLVASISRSGCSTYYADSVKGRFTISRDNAKNSVYLQMNSLIPEDTAVYYCASRGFSFSFSYPSYDYWGQGTQVTVSS | high polyreactivity

Row | Sequence | polyreactivity (PSR sort gate)
23 | QVQLVESGGGLVQAGGSLRLSCAASGSTFKRYAMGWYRQAPAKERELVASISSGGSTNYADSVKGRFTISRDNAKNTVYLQMNSLKPEDTAVYYCNAVYYCYKGDYWGQGTQVTVSS | high polyreactivity
24 | QVQLVESGGGLVQAGGSLRLSCAASGSTFKRYAMGWYRQAPGKERELVAAIRRGGITNYADSVKGRFTISRDNAKNTVYLQINSLKPEDTAVYYWAATSIYSNYYREGYWGQGTQVTVSS | low polyreactivity
25 | QVQLVESGGGLVQAGGSLRLSCAASGSTFKRYAMGWYRQAPGKERELVAAISLSSGSTYYADSVKGRFTISRDNAKNTVYLQMNSLKPEDTAVYYCNAAKTYPDVYEYDYWGQGTQVTVSS | high polyreactivity
26 | QVQLVESGGGLVQAGGSLRLSCAASGSTFKRYAMGWYRQAPGKERELVAANSASGGSTSYADSVKGRFTISRDNAKITVYLQMNSLTPEDTAVYYCAPYYWLYSSSYDYWGQGTQVTVSS | high polyreactivity
27 | QVQLVESGGGLVQAGGSLRLSCAASGSTFKTYAMGWYRQAPGKERELVAAITSSGGRTYYADSVKGRFTISRDNAKNTVYLQMNSLKPEDTAVYYCAAVRRSYNQLDYWGQGTQVTVSS | high polyreactivity
28 | QVQLVESGGGLVQAGGSLRLSCAASGSTFKTYTMGWYRQAPGKERELVAGITSGGSTSYADSVKGRFTISRDNAKNTVYLQMNSLKPEDTAVYYCAADTSYDSYEYWGQGTQVTVSS | low polyreactivity
29 | QVQLVESGGGLVQAGGSLRLSCAASGSTFKVNAMGWYRQAPGKERELVAAISRGGSTYADSVKGRFTISRDNAKNTVYFQINSLKPEDTAVYYCAAKSRYFQPDEYYYWGQGTQVTVSS | high polyreactivity
30 | QVQLVESGGGLVQAGGSLRLSCAASGSTFKVYAMGWYRQAPGKERELVATISKSGSTYADSVKGRFTISRDNAKNTVYLQMNSLKPEDTAVYYCAADLYTYPRTRRRAYGYWGQGTQVTVSS | high polyreactivity
31 | QVQLVESGGGLVQAGGSLRLSCAASGSTFKWYTMGWYRQAPGNEREFVAAISSSGGRTYYADSVKGRFTISRDNAKNTDYLQMNCLKPEDTAVYFCAAGYLYQFRAATFGYWGQGTQVTVSS | high polyreactivity
32 | QVQLVESGGGLVQAGGSLRLSCAASGSTFKYYAMGWYRQAPGKERELVAAISSGGSTYYADSVKGRFTISRDNAKNTVYLQMNSLKPEDTAVYYCAARGYYGKFSGSGYWGQGTQVTVSS | high polyreactivity
33 | QVQLVESGGGLVQAGGSLRLSCAASGSTFKYYAMGWYRQAPGKERELVASITSGGSTYYADSVKGRFTISRDNAKNTVYLQMNSLKPEDTAVYYCNKRWITSYYTRYDYWGQGTQVTVSS | high polyreactivity
34 | QVQLVESGGGLVQAGGSLRLSCAASGSTFKYYGMGWYRQAPGKERELVASISSSGTRTYYADSVKGRFTISRDNAKYTVYLQMNSLKPEDTAVYYCAADSYATYFLYDSWGQGTQVTVSS | low polyreactivity
35 | QVQLVESGGGLVQAGGSLRLSCAASGSTFKYYVMGWYRQAPGKERELVAAISGRTGSTYYADSVKGRFTISRDNAKNTVYLQMNSLKPEDTAVYYCAKRGFLYWDHVSGFYRYDYWGQGTQVTVSS | low polyreactivity
36 | QVQLVESGGGLVQAGGSLRLSCAASGSTFLAYTMGWYRQAPEKERELVADNTSNGGSTYYADSVKGRFTISRDNAKNTVYLQMNSLKPEDTAVYYCNTGSGAGITRPDDDFNYWGQGTQVTVSS | low polyreactivity
37 | QVQLVESGGGLVQAGGSLRLSCAASGSTFLDNAMGWYRQAPGKERELVAVITASDTNTNYADSVKGRFTISRDNAKNTVYLQMNRLKPEDTAVYYCNADATYTSYDYWGQGTQVTVSS | low polyreactivity
38 | QVQLVESGGGLVQAGGSLRLSCAASGSTFLGNAMGWYRQAPGKERELVATITGSSGSTYYADSVKGRFTISRDNAKNTVYLQMNSLKPEDTAVYYCNTVYNYWDGYDYWGQGSQVTVSS | low polyreactivity
39 | QVQLVESGGGLVQAGGSLRLSCAASGSTFLGYAMGWYRQAPGKERELVAAITYSGGGTYYADSVKGRFTISRDNAKNTVYLQMNSLKPEDTAVYYCNADVSWSYSVYREYGMDYWGQGTQVTVSS | low polyreactivity
40 | QVQLVESGGGLVQAGGSLRLSCAASGSTFLGYTMGWYRQAPGKERELVASITNSGSTDYADSVKGRFTISRDNAKNTVYLHMNSLKPEDTAVYYCAAQFYRYPSKNDYWGQGTQVTVSS | high polyreactivity
41 | QVQLVESGGGLVQAGGSLRLSCAASGSTFLINAMGWYRQAPRKERELVATISSGGSTYYADSVKGRFTISRDNAKNTVYLQMNSLKPEDTAVYSCAADPDRTAYDYWGQGTQVTVSS | low polyreactivity
42 | QVQLVESGGGLVQAGGSLRLSCAASGSTFLKYTMGWYRQAPRKDRELVAGITRSSRSTYYADSVKGRFTISRDNAKYTVYLQMNSLKPEDTAVYYCAATVYLYTDLAYYWFGYWGQGTQVTVAS | high polyreactivity
43 | QVQLVESGGGLVQAGGSLRLSCAASGSTFLLNAMGWYRQAPGKERELVAAITWNGGSTYYADSVKGRFTISRDNAKNTVYLQMNSLKPEDTAVYYCAADWSWQWRYGYDYWGQGTQVTVSS | low polyreactivity
